# Experiment: soluble on expression in E. coli; label from the status in PepcDB or PDB records
row,Sequence,soluble on expression in E. coli
1,MSKENIVTRENTAVSENAVSEPTVNNDVGASATNSVTHPAFTLNVRPDNIGIITIDVVGDKVNTLKAEFADQIATILQQAHALPKLQGLVIVSGKPDSFIAGADITMIAACRTAHDARVLAQKGQSILAQIAAFPVPVVAAIHGACLGGGLELALACHSRICSLDDKTVLGLPEVQLGLLPGSGGTQRLPRLVGVSKALDMILTGKQIRPRQALKMGLVDDVVPRDILLDVAIQRAKAGWLNRRALPWQERLLSGPLGKALLFRIVRKKTLAKTRGHYPAAERIIDVVRKGLDQGGPSGYEAEARAFGELAMSPQSAALRSLFFATTSLKKETGSAATARAIHRVGVLGGGLMGGGIANVTATRAGLPVRIKDINPQGINQALKYTWDALGKRVRSKRMRPTEQQRQMMLISGSTDYRGFERVDIVVEAVFEDLSLKQQMVADIERFGAAHTIFASNTSSLPISQIAALAQRPEQVIGLHYFSPVDKMPLVEVIPHEKTSEETIATTVALARKQGKTAIVVADRAGFYVNRILAPYINEAARCLLDGEPIESVDNALVDFGFPVGPMMLLDEVGIDVATKIMPILVEQLGPRFAAPPSFDVILKDGRKGRKNGRGFYLYSNPTKNSSPTKNGNSPAKRNSFKWRKNKVKPVDASIYTLLGVTPKAHLGAGVITQRCTMLMLNEAVRCLDESIIRNPRDGDIGAVFGIGFPPFLGGPFRYLDSLGADKVVQALRLLVQQYGERFEPCQRLVTMAEQQQQFYPVDANIDEVTDVAS,not soluble
2,TPDIQMTQSPSSLSASVGDRVTITVQASQDIIKHLNWYQQTPGKAPKLLIYEASNLQAGVPSRFSGSGSGTDYTFTISSLQPEDIATYYCQQYQSLPYTFGQGTKLQIT,soluble
3,MGSDKIHHHHHHMPSETRLPNFIRTLIFALSFIFLNACSEQTAQTVTLQGETMGTTYTVKYLSNNRDKLPSPAEIQKRIDDALKEVNRQMSTYQPDSEISRFNQHTAGKPLRISSDFAHVTAEAVHLNRLTHGALDVTVGPLVNLWGFGPDKSVTREPSPEQIKQAASYTGIDKIILKQGKDYASLSKTHPKAYLDLSSIAKGFGVDKVAGELEKYGIQNYLVEIGGELHGKGKNARGEPWRIGIEQPNIVQGGNTQIIVPLNNRSLATSGDYRIFHVDKSGKRLSHIINPNNKRPISHNLASISVVADSAMTADGLSTGLFVLGETEALKLAEREKLAVFLIVRDKGGYRTAMSSEFEKLLR,not soluble
4,GEINGVSGIFPASSVEVIKQLPQPPPLCRALYNFDLRDKDKSENQDCLTFLKDDVITVISRVDENWAEGKLGDKVGIFPILFVEPNVSARHLLQNKGHQLSRTRHLSLMSSPSRGKATNTSSLRKSPGSRRKGSGQFSMTTALNTLNRTVHSPEGHQMVEISTPMLISSNSPSVLTQHGDKADFPTSSTGQVSSSQPAPASPGHSTAMVSVPSSQQHLSNNMFVALHTYSAHRPEELDLQKGEGIRVLGKYQDGWLKGLSLLTGRTGIFPSDYVIPVFSSTARKTSSFPDSRSPTVCTTWALSTSSVSSQGSFAEGDPRQSGPFKSVFVPTAVVNPSRSTPGPGSSGQGSLRKVRSSMRKNGSLQRPVQSGIPTFMVGSLRCSPTMVIRPQRFQFYPPQGMTPSPTPIMVEMGSKSIYTGEPALTCINRGSKTRIHSAGNSIIMEGKETPIKSEPPPKPPASAPPSILVKPENSKNGTEKQVKTVRFQNYSPPPTKHSASSPTSGKHDHPATLKGSQHEAVSSGGEMTILFAHRSGCHSGQQTDLRRKSAFGKTMPLLSTASATQTLFPSK,soluble
5,MAKAAKRFRTPSTTRVLYVRHAHAHGRQTWGGDDNKRPLDKKGRRQAEMLVPMLLPFKPTAIYSAVPDRCQATALPLADELGLDVSVNRLFGDDAWETDPEACKKRFTDVVAQGGVPMIVGQGDIIPEMIKWFSENGTLPIDEKIKAKKGSVWVLSFHDGVFTGADYLEHHHHHH,not soluble
6,KLLEHVRNILPPNITCLYIRQAEALGLGHAVLCARAAIGDEPFAVILADDLIDAPKGALKQMVEVYGRSGNSILGVETVEASQTGSYGIVETEQLKQFQRITGIVEKPKPEDAPSNLAVVGRYILTPRIFDLLTNLPRGAGNEIQLTDGIAKLLDHEFVLAHPFEGTRYDCGSKLGYLEATVAYGLKHPETGEPFRRLLEKYRTE,not soluble
7,MEKNLYDTNKLIELYKNKESMSGYTTILNVIEFPKALEFNLTVLYLSKSDYRLAIKISTELLKIGEPVPAVYTLISAIANKQRFKGCNAGQTFYAS,not soluble
8,TSPTTTSTGTGTGSSTDQAISPLVEGENAPEVTTAKLGFIALTDAAPLIIAKEKGFYAKYGMPDVEVLKQASWGTTRDNLVLGSASGGIDGAHILTPMPYLITMGTVTDGKPTPMYILARLNVNGQGIQLGNNYKDLKVGTDAAPLKEAFAKVTDPKVAMTFPGGTHDMWIRYWLAAGGMEPGKDFSTIVVPPAQMVANVKVNAMESFCVGEPWPLQTVNQGVGYQALTTGQLWKDHPEKAFGMRADWVDQNPKAAKALLMAVMEAQQWCDQAENKEEMCQILSKREWFKVPFEDIIDRSKGIYNFGNGQETFEDQEIMQKYWVDNASYPYKSHDQWFLTENIRWGYLPASTDTKAIVDKVNREDLWREAAQALEVPADQIPSSPSRGIETFFDGITFDPENPQAYLDSLKIKSIKA,soluble
9,MSAQKPGLHPRNRHQHRYDLAALCQTTPELTSFLIRTPAGEQSVDFANPQAVKALNKALLAHFYAVTHWDIPPGFLCPPVPGRADYIHHLADLLGETTGSIPAQATILDVGVGANCIYPLIGVHEYGWRFTGSEVSDAAMSSAQAIIQANTGLSRAIRLRRQKDPAAIFTGIIHKNEFYDATLCNPPFHDSAAAARAGSERKRRNLGQNKDDALNFGGQQQELWCEGGEVAFIKKMIAESQTFRRQVLWFTTLVSRGENLPPLYRALTEAGAVKVVKKEMAQGQKQSRFIAWTFMDDDQRRRFITRKRLEHHHHHH,soluble
10,MQYKLILNGKTLKGETTTEAVDAATAEKVFKQYANDNGVDGEWTYDDATKTFTVTEGSHHHHHHMHRDSCPLDCKVYVGNLGNNGNKTELERAFGYYGPLRSVWVARNPPGFAFVEFEDPRDAADAVRELDGRTLCGCRVRVELSNGEKR,soluble
11,MGSDKIHHHHHHMEVKPFRPLIYRKEIDGMISPPFDAITPKQEIELKRNPYNITYLTLPKGRDGVSHARMIMENWIENGVLLRAERDCIIVLKQIFSANSRRITRYGIIARVRVFPENGDVIPHERTFDEFVRDREILMEGIGSQLEPIFLVTLKNELPQYLKIITENMKEDNRYFGPENVENYVYYIYDHKEIQKISNILRNDIAIVADGHHRLQATKNIASRQSGLAREFWSYAMSYVTSIHDEGVLIGGVHRVISSRFRFDADRASKYFYVDQCDTIAGNDPVIYDGRFYCIRPRENVYDNIIDSLNDFLFSKTIGMSTIDLERDVIYTHDYAEVVNLVNSGSFSFGVIMPDWDKAHLVELLLTRKILPQKSTYFYPKIPSGISIDSISEFIVT,not soluble
12,MKYILFATAGHVDHGKTTLIKTLTGIDTDRLPEEKKRGLSIDIGFAYIDFPDINTRLEIIDVPGHERFIKNAIAGICSASGLILVVDPNEGIMPQTIEHLRVAKSFGIKHGIAVLTKMDKVDEELAHIAEEELIAFLEKEEMNMEIVKVSAVTGQGIEDLKNSIKKLLESINNLNKHKPLRIFVDSAFVVKGYGTVLRGSCFEGEVKEGDKVVVEPIGVISRVRKMQNHGVFVKKAVAGERIALNLPEVDAKKVKRGFLILKPESYEKSNVLIVKTEIDLKPGKIYQVFFGMRETVGKISVIDKGIYLVRLKENAIVRRGDKLVVLDSSGNFLGGAEVLHPKVRVTKKAFIKKNIKDLLENFECYLLKERGPIGLKLEFFKRITGVSPKVANLKPESIEIRGVYYLKGFIENLKLKIKKFLDTELQNAFGVDKEKVKSMFSLNEELLKYILDELKTYKIVNELIIDERKSDLEKNEDFQKLMSILKGGIKEEREIILEGIPKEILTLSIKRKYAHRIGEYLIISDELLKKYINELKELGKTFNVQQAKNKLGLTRKYLIPLLEYLDYLGLTVREGNERRWKR,soluble
13,MQQNIQYTYSSDPRSGGNQNQQLHGISQFQQNSYQPTTYSNSNANNFHSSNSATFIPNSVTQTPQRRMGEEKSLVNMLDAYFIDSTTPSTSTSWNNQQPVQMSSIQQSVGSYNQQIPQLKVGDVDLQVEGMNVKLSSSPDKGEKDRVKKARQAEAARMRYHRLSNEEKRELNLKRTLAQKRKRQREKEMEELESILRETNDIQEDPDITEQLREKRMRAKWAEAARTRYARMTPEERRAHNTRRRMRQMQNAMSAIKACGMATGDPQKDDEAVRLHIKTQNAKKAEAARQRYHRMNDDEKRVYNQRRTEAFRRRRMEEEMLLAMPIGRINGEALDRAQQIVVRNAKRAEAARLRYQRMTPDQRKVAKQEPKEESWPSHEQSDTQIDHDLDLGDSYNQKRYTPKRRRNEMDDMISAGQMAVGSSGTITMGTGTPAKKDDMDALSSLERDVVKRTQHAQQILLRQRANQSSGTPRSVTPPPQAYIISNGQQQHQQLVGNQGNNGIGQHQVLHQGHMQQQQIQVSHQQSSQSIPQNIYTSGMIIQNQGQQQQGQQQQQGQSQQILNNPYRT,not soluble
14,MSTEKLEASEEPQAPLANTSETNSIKGDTENIVTVFDLANEIEKSLKDVQRQMKENDDEFSRSIQAIEDKLNKMSR,not soluble
15,MEKQVRVRYAPSPTGHLHIGNARTALFNYLFARHQDGKFIIRIEDTDVKRNVAGGEESQLKYLKWLGMDWDEGVDVGGEFGPYRQTERLDIYKKLYEDLLERGLAYKCYMTEEELEAEREGQIARGETPRYAGNHRDLTEAQVKEFEAEGRIPSIRFRVPADRDYTFKDIVKDEVAFHSNDFGDFVIVKKDGIPTYNFAVAVDDHLMEITHVLRGDDHISNTPKQMMIYEAFGWDIPQFGHMTLIVNESRKKLSKRDESIIQFIEQYKELGYLPEAIFNFIALLGWSPVGEEEIFSQEEFIKMFDAARLSKSPALFDSQKLKWMNNQYMKKQDLDTVVELSLPHLVKAGRIGETLSEQEQAWIRDVIALYHEQMSFGAEIVELSEMFFKDHVDYEEEGQEVLKGEQVPEVLRAFAGQVEALEAMEPAAIKAAIKAVQKETGHKGKNLFMPIRVATTGQTHGPELPNAIALLGKEKVLNRLQKVIG,soluble
16,MFSSAHSGLLEKLFHYIDLHQDEFVQTLKEWVAIESDSVQPVPRLRQKLFQMMALAADKLRNLGAGVESIDLGSQQMPDGQSLPIPPILLAELGSDPEKPTVCFYGHLDVQPAQKDDGWLTDPYTLTEVDGKLYGRGATDNKGPVLAWINAVSTFRALQQDLPVNIKLILEGMEEAGSIALEELVMREKDHFFSSVDYIVISDNLWLSQRKPALTYGTRGNCYFTVEVKCRDQDFHSGTFGGILNEPMADLVALLGSLVDSSGHILIPGIYDQMAPITEGEKTMYKNIDMDLEEYQNINQVEKFLFDTKEELLMHLWRYPSLSIHGIEGAFDEPGTKTVIPGRVLGKFSIRLVPTMSPSVVEKQVTQHLEAVFSKRNSFNKMAVSMVLGLHPWTANVNDTQYLAAQRTIKTVFGVNPDMIRDGSTIPIAKIFQAITQKSVMMLPLGAVDDGEHSQNEKINRWNYIQGSKLFAAFFLELSKQHSGHQMPSSVY,not soluble
17,MAHHHHHHMENIENIENIEKIHLTDDGGVIKTILRKGNEGEENVPKKGNEVTVHYIGKLESDGSIFDSSRQRDVPFKFHLGNGEVIKGWDICVASMKKNEKCLVRLDSKYGYGKEGCGETIPGNSVLIFEIELLSFKEAKKNIYDYTDEEKIQAAFELKDEGNEFFKKNEINEAIAKYKEALDYFMHTDEWEDELLEKKKNIQIICNLNLSTCYNKNKDYPNAIEHASKVLKLDKNNVKGLYKLGVANMNFGFLEEAKINLYKAASLNPKNLDIRNSYELCIAKLKEARKKDQITFG,soluble
